Results as given in publication PMC6629437 (Cell, 2019).

Columns and labels:
[1] = target: T1, HA head domain of H1 A/Solomon Islands/3/2006 (Influenza A virus A/Solomon …, strain); assay: BLI
T1 chain: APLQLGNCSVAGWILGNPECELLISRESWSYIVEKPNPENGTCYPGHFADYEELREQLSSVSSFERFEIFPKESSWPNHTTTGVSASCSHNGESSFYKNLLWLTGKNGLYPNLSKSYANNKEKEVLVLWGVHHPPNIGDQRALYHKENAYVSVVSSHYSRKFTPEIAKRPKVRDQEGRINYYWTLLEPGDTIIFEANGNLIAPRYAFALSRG

[2] = target: HA head domain of H3 A/Victoria/361/2011 (Influenza A virus A/Victoria/361/2011 …, UniProt A0A097PF39, strain); assay: BLI
[3] = target: H1 HA of A/California/04/2009, His-tagged soluble HA (competition assay) (Influenza A virus A/California/04/2009 …, UniProt C3W5S1, strain); assay: BLI
[4] = target: HA head domain of H7 A/Shanghai/02/2013 (Influenza A virus A/Shanghai/02/2013 …, UniProt R4NN21, strain); assay: BLI
[5] = target: H7 HA of A/New York/107/2003 (Influenza A virus A/New York/107/2003 …, UniProt B2LVD7, strain); assay: ELISA
[6] = target: monomeric HA head domain of H5 A/Vietnam/1203/2004 (Influenza A virus A/Vietnam/1203/2004 …, UniProt Q5EP31, strain); assay: HDX-MS
[7] = target: H7 HA0 trimer of A/Shanghai/02/2013 (uncleaved, baculovirus-expressed ectodomain) (Influenza A virus A/Shanghai/02/2013 …, UniProt R4NN21, strain); assay: BLI
[8] = target: H1 HA0 trimer of A/California/04/2009 (uncleaved, baculovirus-expressed ectodomain) (influenza A virus A/California/04/2009 …); assay: BLI
[9] = target: HA head domain of H3 A/Hong Kong/1/1968 (Influenza A virus A/Hong Kong/1/1968 …, strain); assay: crystal structure
[10] = target: H5 HA of A/Indonesia/5/2005 (Influenza A virus A/Indonesia/5/2005 …, UniProt A5A5L7, strain); assay: ELISA
H1 HA of A/Texas/36/1991 = H1 HA of A/Texas/36/1991 (Influenza A virus A/Texas/36/1991 (H1N1), UniProt Q6WG02, strain); assay: ELISA

Measured: binding result

B1: FluA-20 IgG (hybridoma-generated) (antibody, V domains shown)
VH: QVQLEESGPGLVKPSETLSLTCSVSGVSVTSDIYYWTWIRQPPGKGLEWIGYIFYNGDTNYNPSLKSRVTMSIDTSKNEFSLRLTSVTAADTAVYFCARGTEDLGYCSSGSCPNHWGQGTLVTVSS
VL: DIVMTQSPSSLSASIGDRVTITCRPSQNIRSFLNWFQHKPGKAPKLLIYAASNLQSGVPSRFSGSGSGTEFTLTIRSLQPEDFATYYCQQSYNTPPTFGQGTKVEIK
binds: [1] | [2] | [3] | [4] | [5] | [6]

B2: rFluA-20 Fab (Fab, V domains shown)
VH: QVQLEESGPGLVKPSETLSLTCSVSGVSVTSDIYYWTWIRQPPGKGLEWIGYIFYNGDTNYNPSLKSRVTMSIDTSKNEFSLRLTSVTAADTAVYFCARGTEDLGYCSSGSCPNHWGQGTLVTVSS
VL: DIVMTQSPSSLSASIGDRVTITCRPSQNIRSFLNWFQHKPGKAPKLLIYAASNLQSGVPSRFSGSGSGTEFTLTIRSLQPEDFATYYCQQSYNTPPTFGQGTKVEIK
binds: [7] | [8] | [9]

B3: rFluA-20 IgG (recombinant FluA-20 IgG) (antibody, V domains shown)
VH: QVQLEESGPGLVKPSETLSLTCSVSGVSVTSDIYYWTWIRQPPGKGLEWIGYIFYNGDTNYNPSLKSRVTMSIDTSKNEFSLRLTSVTAADTAVYFCARGTEDLGYCSSGSCPNHWGQGTLVTVSS
VL: DIVMTQSPSSLSASIGDRVTITCRPSQNIRSFLNWFQHKPGKAPKLLIYAASNLQSGVPSRFSGSGSGTEFTLTIRSLQPEDFATYYCQQSYNTPPTFGQGTKVEIK
binds: [5] | [10] | H1 HA of A/Texas/36/1991
